First the molecules themselves.
B1: SIAH1^SBD (tag-cleaved) (enzyme)
chain: VANSVLFPCKYASSGCEITLPHTEKADHEELCEFRPYSCPCPGASCKWQGSLDAVMPHLMHQHKSITTLQGEDIVFLATDINLPGAVDWVMMQSCFGFHFMLVLEKQEKYDGHQQFFAIVQLIGTRKQAENFAYRLELNGHRRRLTWEATPRSIHEGIATAIMNSDCLVFDTSIAQLFAENGNLGINVTISMC

In the experiment “SIAH1^SBD (tag-cleaved)” the target is B1. Nature of the experiment: ITC. A general note: ITC needs no label: the signal is the heat of the interaction.
The target in another experiment is BCL6^5-360 (ITC) (UniProt P41182 5-360). The experiment is described as follows: ITC; also printed as Kd = 1.6 uM.

One may read the Kd as the concentration at which binding is half-saturated. A high value points to lower affinity.

For EYSRPTLEVSPNVCHSNIYS [BCL6^241-260 peptide], the affinity with SIAH1^SBD (tag-cleaved), expressed as Kd, was 6.3 µM.

B1 came in with a Kd with BCL6^5-360 (ITC) of 1.57 µM.

These data come from patent US20220281931A1 (published 2022).
